Columns and labels:
[1] = target: HCV E2 (HCV); test: Luminex assay, antibody 50 µg/ml
[2] = target: Influenza HA (Wisconsin) (influenza virus); test: Luminex assay, antibody 50 µg/ml
[3] = target: SSB autoantigen; test: Athena assay, mAb 12.5 ug/ml; positive >50
[4] = target: Sm autoantigen; test: Athena assay, mAb 12.5 ug/ml; positive >50
[5] = target: Histone autoantigen; test: Athena assay, mAb 12.5 ug/ml; positive >50
[6] = target: centromere B autoantigen; test: Athena assay, mAb 12.5 ug/ml; positive >50
[7] = target: RNP autoantigen; test: Athena assay, mAb 12.5 ug/ml; positive >50
[8] = target: Jo 1 autoantigen; test: Athena assay, mAb 12.5 ug/ml; positive >50
[9] = target: SSA autoantigen; test: Athena assay, mAb 12.5 ug/ml; positive >50
[10] = target: Scl 70 autoantigen; test: Athena assay, mAb 12.5 ug/ml; positive >50
[11] = target: SSB autoantigen; test: Athena assay, mAb 50 ug/ml; positive >50
[12] = target: Sm autoantigen; test: Athena assay, mAb 50 ug/ml; positive >50
[13] = target: Histone autoantigen; test: Athena assay, mAb 50 ug/ml; positive >50
[14] = target: centromere B autoantigen; test: Athena assay, mAb 50 ug/ml; positive >50
[15] = target: RNP autoantigen; test: Athena assay, mAb 50 ug/ml; positive >50
[16] = target: Jo 1 autoantigen; test: Athena assay, mAb 50 ug/ml; positive >50
[17] = target: SSA autoantigen; test: Athena assay, mAb 50 ug/ml; positive >50
[18] = target: Scl 70 autoantigen; test: Athena assay, mAb 50 ug/ml; positive >50
[19] = target: A244gD+ gp120 (herpes simplex virus; HIV-1); test: SPR
Sequence of A244gD+ gp120 (herpes simplex virus; HIV-1) (Q69091 26-52): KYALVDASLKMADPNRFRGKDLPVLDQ

[20] = target: SSB autoantigen; test: Athena assay, mAb 25 ug/ml; positive >50
[21] = target: Sm autoantigen; test: Athena assay, mAb 25 ug/ml; positive >50
[22] = target: Histone autoantigen; test: Athena assay, mAb 25 ug/ml; positive >50
[23] = target: centromere B autoantigen; test: Athena assay, mAb 25 ug/ml; positive >50
[24] = target: RNP autoantigen; test: Athena assay, mAb 25 ug/ml; positive >50
[25] = target: Jo 1 autoantigen; test: Athena assay, mAb 25 ug/ml; positive >50
[26] = target: SSA autoantigen; test: Athena assay, mAb 25 ug/ml; positive >50
[27] = target: Scl 70 autoantigen; test: Athena assay, mAb 25 ug/ml; positive >50
[28] = target: SSB autoantigen; test: Athena assay, mAb 6.25 ug/ml; positive >50
[29] = target: Sm autoantigen; test: Athena assay, mAb 6.25 ug/ml; positive >50
[30] = target: Histone autoantigen; test: Athena assay, mAb 6.25 ug/ml; positive >50
[31] = target: centromere B autoantigen; test: Athena assay, mAb 6.25 ug/ml; positive >50
[32] = target: RNP autoantigen; test: Athena assay, mAb 6.25 ug/ml; positive >50
[33] = target: Jo 1 autoantigen; test: Athena assay, mAb 6.25 ug/ml; positive >50
[34] = target: SSA autoantigen; test: Athena assay, mAb 6.25 ug/ml; positive >50
[35] = target: Scl 70 autoantigen; test: Athena assay, mAb 6.25 ug/ml; positive >50
[36] = target: A244 gD- gp120 (HIV-1); test: SPR
[37] = target: HV00044 (6240 TZ5 140C) (HIV-1); test: SPR

CH02 (antibody)
background substracted RFUs [1]: 333 RFU
background substracted RFUs [2]: 0.3 RFU
Autoreactivity (Athena) [3]: 3.5
Autoreactivity (Athena) [4]: 2.5
Autoreactivity (Athena) [5]: 8.5
Autoreactivity (Athena) [6]: 7
Autoreactivity (Athena) [7]: 6
Autoreactivity (Athena) [8]: 1
Autoreactivity (Athena) [9]: 5
Autoreactivity (Athena) [10]: 1.5
Autoreactivity (Athena) [11]: 4.5
Autoreactivity (Athena) [12]: 3.5
Autoreactivity (Athena) [13]: 15.5
Autoreactivity (Athena) [14]: 12.5
Autoreactivity (Athena) [15]: 12.5
Autoreactivity (Athena) [16]: 2
Autoreactivity (Athena) [17]: 5.5
Autoreactivity (Athena) [18]: 2.5
Kd [19]: 450 nM
Autoreactivity (Athena) [20]: 4.5
Autoreactivity (Athena) [21]: 3
Autoreactivity (Athena) [22]: 11.5
Autoreactivity (Athena) [23]: 9.5
Autoreactivity (Athena) [24]: 9
Autoreactivity (Athena) [25]: 1.5
Autoreactivity (Athena) [26]: 6
Autoreactivity (Athena) [27]: 2
Autoreactivity (Athena) [28]: 5
Autoreactivity (Athena) [29]: 2.5
Autoreactivity (Athena) [30]: 7
Autoreactivity (Athena) [31]: 6
Autoreactivity (Athena) [32]: 5
Autoreactivity (Athena) [33]: 1.5
Autoreactivity (Athena) [34]: 5
Autoreactivity (Athena) [35]: 2

Synagis (anti-RSV control mAb) (antibody)
background substracted RFUs [1]: 0.5 RFU
background substracted RFUs [2]: 1 RFU

CH05 (antibody)
background substracted RFUs [1]: 1.3 RFU
background substracted RFUs [2]: 5.5 RFU
Autoreactivity (Athena) [3]: 5
Autoreactivity (Athena) [4]: 3.5
Autoreactivity (Athena) [5]: 11
Autoreactivity (Athena) [6]: 6.5
Autoreactivity (Athena) [7]: 3.5
Autoreactivity (Athena) [8]: 2.5
Autoreactivity (Athena) [9]: 8
Autoreactivity (Athena) [10]: 1.5
Autoreactivity (Athena) [11]: 13
Autoreactivity (Athena) [12]: 2.5
Autoreactivity (Athena) [13]: 21.5
Autoreactivity (Athena) [14]: 14.5
Autoreactivity (Athena) [15]: 9
Autoreactivity (Athena) [16]: 9
Autoreactivity (Athena) [17]: 27
Autoreactivity (Athena) [18]: 2
Kd [19]: 26.1 nM
Kd [36]: 340 nM
Kd [37]: 1450 nM
Autoreactivity (Athena) [20]: 5.5
Autoreactivity (Athena) [21]: 3
Autoreactivity (Athena) [22]: 14
Autoreactivity (Athena) [23]: 9
Autoreactivity (Athena) [24]: 4.5
Autoreactivity (Athena) [25]: 3.5
Autoreactivity (Athena) [26]: 12.5
Autoreactivity (Athena) [27]: 1.5
Autoreactivity (Athena) [28]: 6
Autoreactivity (Athena) [29]: 2.5
Autoreactivity (Athena) [30]: 10
Autoreactivity (Athena) [31]: 6
Autoreactivity (Athena) [32]: 3
Autoreactivity (Athena) [33]: 2.5
Autoreactivity (Athena) [34]: 7
Autoreactivity (Athena) [35]: 1.5

CH04 (antibody)
background substracted RFUs [1]: 0.5 RFU
background substracted RFUs [2]: 2.5 RFU
Autoreactivity (Athena) [3]: 4.5
Autoreactivity (Athena) [4]: 2.5
Autoreactivity (Athena) [5]: 11
Autoreactivity (Athena) [6]: 8
Autoreactivity (Athena) [7]: 4
Autoreactivity (Athena) [8]: 2.5
Autoreactivity (Athena) [9]: 7
Autoreactivity (Athena) [10]: 2
Autoreactivity (Athena) [11]: 11
Autoreactivity (Athena) [12]: 3
Autoreactivity (Athena) [13]: 26
Autoreactivity (Athena) [14]: 18
Autoreactivity (Athena) [15]: 9
Autoreactivity (Athena) [16]: 5
Autoreactivity (Athena) [17]: 19
Autoreactivity (Athena) [18]: 3
Kd [19]: 25.5 nM
Kd [36]: 410 nM
Kd [37]: 360 nM
Autoreactivity (Athena) [20]: 8
Autoreactivity (Athena) [21]: 2
Autoreactivity (Athena) [22]: 16
Autoreactivity (Athena) [23]: 13
Autoreactivity (Athena) [24]: 6
Autoreactivity (Athena) [25]: 3
Autoreactivity (Athena) [26]: 11
Autoreactivity (Athena) [27]: 2
Autoreactivity (Athena) [28]: 6
Autoreactivity (Athena) [29]: 3
Autoreactivity (Athena) [30]: 9.5
Autoreactivity (Athena) [31]: 6.5
Autoreactivity (Athena) [32]: 3
Autoreactivity (Athena) [33]: 2
Autoreactivity (Athena) [34]: 6
Autoreactivity (Athena) [35]: 1.5

4E10 (antibody)
background substracted RFUs [1]: 89.2 RFU
background substracted RFUs [2]: 0 RFU
Autoreactivity (Athena) [3]: 124
Autoreactivity (Athena) [4]: 5
Autoreactivity (Athena) [5]: 160
Autoreactivity (Athena) [6]: 13
Autoreactivity (Athena) [7]: 9
Autoreactivity (Athena) [8]: 87
Autoreactivity (Athena) [9]: 169
Autoreactivity (Athena) [10]: 3
Autoreactivity (Athena) [11]: 254
Autoreactivity (Athena) [12]: 9
Autoreactivity (Athena) [13]: 333
Autoreactivity (Athena) [14]: 31
Autoreactivity (Athena) [15]: 20
Autoreactivity (Athena) [16]: 156
Autoreactivity (Athena) [17]: 306
Autoreactivity (Athena) [18]: 3
Autoreactivity (Athena) [20]: 206
Autoreactivity (Athena) [21]: 7
Autoreactivity (Athena) [22]: 274
Autoreactivity (Athena) [23]: 19
Autoreactivity (Athena) [24]: 15
Autoreactivity (Athena) [25]: 138
Autoreactivity (Athena) [26]: 247
Autoreactivity (Athena) [27]: 4
Autoreactivity (Athena) [28]: 93
Autoreactivity (Athena) [29]: 4
Autoreactivity (Athena) [30]: 113
Autoreactivity (Athena) [31]: 9
Autoreactivity (Athena) [32]: 6
Autoreactivity (Athena) [33]: 65
Autoreactivity (Athena) [34]: 115
Autoreactivity (Athena) [35]: 2
